Measurements: patent publication US5683904

Biological target: ubiquitin-methionine-dihydrofolate reductase (mouse) (UniProt P00375)

Yuh1 ubiquitin-specific protease (from UniProt P35127) (enzyme)
deubiquitination in vitro (extract of E. coli expressing Yuh1), share of the fusion deubiquitinated: < 50%
